Test: sequential release of drugs from core-shell nano-disordered electrospun fiber structure
Assay type: physicochemical
Conditions: composite electrospun layer of Example 1; roxithromycin in shell layer fiber, human epidermal growth factor in core layer fiber
Excerpt: Moreover, the transmission electron microscopic image of the core-shell nano-disordered electrospun fiber structure in the composite electrospun layer prepared in Example 1 is shown in FIG. 3. […] The coaxial electrospinning realizes the sequential and timed release of the two drugs in the same electrospun layer. Further, the electrospun layer can be prepared by triaxial electrospinning or multiaxial electrospinning process, which has a core-shell structure of three core layers or multi-core layers, thereby achieving the sequential and timed release of three or more drugs in the same electrospun layer.

B1: human epidermal growth factor: growth factor gel loaded in PVA core layer fiber (protein, UniProt P01133 23-1207, looked up)
Pro-epidermal growth factor: PQHWSCPEGTLAGNGNSTCVGPAPFLIFSHGNSIFRIDTEGTNYEQLVVDAGVSVIMDFHYNEKRIYWVDLERQLLQRVFLNGSRQERVCNIEKNVSGMAINWINEEVIWSNQQEGIITVTDMKGNNSHILLSALKYPANVAVDPVERFIFWSSEVAGSLYRADLDGVGVKALLETSEKITAVSLDVLDKRLFWIQYNREGSNSLICSCDYDGGSVHISKHPTQHNLFAMSLFGDRIFYSTWKMKTIWIANKHTGKDMVRINLHSSFVPLGELKVVHPLAQPKAEDDTWEPEQKLCKLRKGNCSSTVCGQDLQSHLCMCAEGYALSRDRKYCEDVNECAFWNHGCTLGCKNTPGSYYCTCPVGFVLLPDGKRCHQLVSCPRNVSECSHDCVLTSEGPLCFCPEGSVLERDGKTCSGCSSPDNGGCSQLCVPLSPVSWECDCFPGYDLQLDEKSCAASGPQPFLLFANSQDIRHMHFDGTDYGTLLSQQMGMVYALDHDPVENKIYFAHTALKWIERANMDGSQRERLIEEGVDVPEGLAVDWIGRRFYWTDRGKSLIGRSDLNGKRSKIITKENISQPRGIAVHPMAKRLFWTDTGINPRIESSSLQGLGRLVIASSDLIWPSGITIDFLTDKLYWCDAKQSVIEMANLDGSKRRRLTQNDVGHPFAVAVFEDYVWFSDWAMPSVMRVNKRTGKDRVRLQGSMLKPSSLVVVHPLAKPGADPCLYQNGGCEHICKKRLGTAWCSCREGFMKASDGKTCLALDGHQLLAGGEVDLKNQVTPLDILSKTRVSEDNITESQHMLVAEIMVSDQDDCAPVGCSMYARCISEGEDATCQCLKGFAGDGKLCSDIDECEMGVPVCPPASSKCINTEGGYVCRCSEGYQGDGIHCLDIDECQLGEHSCGENASCTNTEGGYTCMCAGRLSEPGLICPDSTPPPHLREDDHHYSVRNSDSECPLSHDGYCLHDGVCMYIEALDKYACNCVVGYIGERCQYRDLKWWELRHAGHGQQQKVIVVAVCVVVLVMLLLLSLWGAHYYRTQKLLSKNPKNPYEESSRDVRSRRPADTEDGMSSCPQPWFVVIKEHQDLKNGGQPVAGEDGQAADGSMQPTSWRQEPQLCGMGTEQGCWIPVSSDKGSCPQVMERSFHMPSYGTQTLEGGVEKPHSLLSANPLWQQRALDPPHQMELTQ
modifications: Pro-epidermal growth factor
notes: growth factor gel loaded in PVA core layer fiber
- order of drug release from core-shell fiber: subsequently released

Reference: patent US20250134683A1, “MICRO-NANO MEDICAL STENT FOR DIRECTIONAL, QUANTITATIVE AND TIMED RELEASE OF DRUG AND PREPARATION METHOD THEREOF” (GUANGDONG UNIVERSITY OF TECHNOLOGY, priority 2023, published 2025)
